# Reference: the supplement of paper PMC11865577
# Legend:
# Assay in all cases: pull-down binding Z-score (relative to library population); higher = stronger binding
# [1] = test system: G-clamp-N3 (biotin conjugate); settings: RNA library: Library-1 (pre-miRNA loops + repeats)
# In short: (§1)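 Binding is given as a Z-score against the library mean and standard deviation, calculated after removing the beads-only signal and averaging barcoded replicate probes without their highest and lowest values. Cy5- or Cy3-end-labelled RNA library (1 μg) was heat-folded in phosphate/NaCl/KCl buffer and incubated 60 min at 25 °C with streptavidin beads bearing 100 pmol of biotin-conjugated small molecule. After three washes, RNA eluted in hot SDS was hybridised to a DNA barcode microarray for 20 h at 55.5 °C.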
# [2] = test system: TO-3-N3 (biotin conjugate); settings: RNA library: Library-2
# In short: as §1
# [3] = test system: TO-3-N3-2 (biotin conjugate); settings: RNA library: Library-2
# In short: as §1
# TO-N3 (biotin conjugate) = settings: RNA library: Library-2
# In short: as §1
# [4] = test system: TO-N3-2 (biotin conjugate); settings: RNA library: Library-2
# In short: as §1
Sequence,pull-down binding Z-score [1],pull-down binding Z-score [2],pull-down binding Z-score [3],pull-down binding Z-score (TO-N3 (biotin conjugate)),pull-down binding Z-score [4]
UAUAUUCGGUUUAUUGACAUGGAAUAUA [hsa-mir-381],2.02,0.718,0.106,0.706,-0.284
UCCUCUCCUGGUCUGGGAGGAUAGAAGAGAGGA [hsa-mir-5191],1.96,-0.205,-0.219,0.823,3.13
GCUGGUCGCGGGUUGUGGGGUUUAGGUCACCGGC [hsa-mir-5091],1.7,3.15,2.9,3.21,2.87
UUUUCAGUUCCUGAGAUC [hsa-mir-4287],-1.15,-0.0736,-0.202,-0.128,-0.441
UUUGCCAUUAAAAGUAAUGCGGCCAA [hsa-mir-548o-2],-1.43,-0.219,0.0369,-0.0582,-0.13
AAUGCAUAGAAAGCAUU [hsa-mir-4272],1.58,-0.177,0.00602,-0.421,-0.629
CAGAUACUUUUUAAAAUUUGUUUGAGUUGAGGCAGAUUAAAUAUCUG [hsa-mir-4742],0.164,-0.76,0.104,-0.82,-0.673
CUAAGCUAUGGACUGCUAUGGACUGCUAG [hsa-mir-4473],-0.249,-0.193,0.196,0.172,0.578
AGAUAGUGAAGUAGAUUAGCAUCUACU [hsa-mir-18a],-0.59,-0.484,0.201,-0.387,0.0251
CCAAAUCCUUUUCUGAUUUGG [hsa-mir-4520-2],-0.824,-0.645,-0.574,-1.03,-1.69
GAUUCUUGAGGCUUGGAAGAGUAAGGAUC [hsa-mir-6866],-0.0295,-0.0976,0.281,0.34,1.07
GAGACUGCCCAAAGACUCUUCAGUAUC [hsa-mir-2681],-0.411,0.782,0.272,0.738,0.223
UUAGCCCAGCAAUGGGAGAGUGCUAA [hsa-mir-4636],0.508,0.252,0.32,0.111,0.154
AGUAUUUUAAUCAUAGAUUGUAUUUAGUUAGUUUUUAAUACU [hsa-mir-4637],-0.0232,-0.732,0.157,-0.955,-0.965
GCGGUUUUUGCUAUUGGUUUUAAUGGC [hsa-mir-548au],-0.139,-0.185,-0.189,-0.205,-0.183
CCAAGGUUGUGCUUUUAGGAAAUGUUGGCUGUCCUGCGG [hsa-mir-5739],0.485,-0.448,0.205,-0.157,0.49
CUGACCCGUUGUCAGACCUGGAAAAAGGGCCGGCUGUGGGCAGGGAGG [hsa-mir-4761],1.11,4.77,5.16,4.2,3.86
AAGAGGUAAGAAGAAGUGAAGCCCUCUU [hsa-mir-4778],-0.836,-0.393,0.35,-0.292,0.281
GCUCCCAACCAACCACUUCCACAUGUUUUGCUGGU [hsa-mir-4451],-1.34,0.136,0.239,0.244,0.308

Sequence,pull-down binding Z-score [1],pull-down binding Z-score [2],pull-down binding Z-score [3],pull-down binding Z-score (TO-N3 (biotin conjugate)),pull-down binding Z-score [4]
AGAGGCUGUGGGCAGGGGGAGAUGUGAAGGAAAGAACUAGGACCCAUUCAUCCACU [hsa-mir-6807],0.739,2.51,2.57,2.97,2.79
CCGAGUGAUCUCGGU [hsa-mir-8071-1_8071-2],-1.48,-0.581,-0.324,-0.685,-0.0845
GGGACAUUGCGGAGAGGGUCUCACAUUGUCCC [hsa-mir-4646],0.248,0.894,0.999,0.925,0.488
UAGUCUAAUAGGGACUA [hsa-mir-5681b],2.76,0.02,-0.0587,-0.292,-1.21
UCCCAGCCACUCUGGAGG [hsa-mir-4419b],0.653,0.274,-0.194,0.44,0.631
CUCAAUGUAGUCUUGUAAGGAACAGGUUGAAG [hsa-mir-595],0.711,-0.166,0.34,0.268,0.908
ACUUUCACCAGAGAGCAGAAAGU [hsa-mir-371b],0.341,-0.485,-0.564,-0.636,-0.356
CUGGCAUUUACGAGUCAGAGUUCUUACAGAGCUGC [hsa-mir-6514],-1.37,0.163,0.16,0.639,1.48
UAUUCUCUAU [hsa-mir-2054],-1.01,0.52,-0.276,0.367,-0.297
UGCUGUGAGCUAGCCAGCAG [hsa-mir-5693],-0.44,-0.0213,0.0593,0.614,0.91
AAAUCCGUGUUUGGACGCUUCUGGUA [hsa-mir-3936],-0.453,0.678,0.653,0.923,0.681
UCAUAAAGAUGAUC [hsa-mir-8067],-0.0232,0.251,0.0624,0.381,0.0453
AGUGAGUUGAUUACUUCUCACU [hsa-mir-4676],-0.179,-0.0959,-0.441,-0.26,-0.222
UGCUGAUGUCAUCAGUCAUAACUUCUGCG [hsa-mir-6854],-0.983,-0.119,0.131,-0.0155,0.366
ACUGAACCAGCUUCAAACAAGUUCACU [hsa-mir-653],-0.145,-0.0896,0.0338,-0.121,-0.00579
CAGCUACACAAGCUG [hsa-mir-631],1.64,-0.0598,-0.33,-0.53,-0.859
UGCAGAUGUGGACUGCUAAAUGCA [hsa-mir-1253],-0.572,-0.411,-0.171,-0.275,0.384
UUUGUCAUUACUUUAAUUACUUUACGUUUCAUUAAUGACAAA [hsa-mir-548h-4],-0.754,-1.23,-0.563,-1.43,-1.46
